*1 amine or outer side, *2 acyl side, *3 side chain or, on linkers, in order; H or OH if unused. Bridges are numbered along the chain shown (N, C = ends). Primed or numbered codes have the meaning given here. Where no end group is shown, it is not given here. [ ]: non-standard residue; d: D form. The star is where a group is joined. Ttds = 1,13-diamino-4,7,10-trioxatridecan-succinamic acid, NCCCOCCOCCOCCCNC(=O)CCC(=O)*; APAc″ = 4-amino-1-carboxymethylpiperidine, NC1CCN(CC(=O)*)CC1; DOTA = O=C(O)CN1CCN(CC(=O)O)CCN(CC(=O)*)CCN(CC(=O)O)CC1; 2Lut = 2,6-lutidylidene bridge between two thiols; Trp(5-Cl) = N[C@@H](Cc1c[nH]c2ccc(Cl)cc12)C(=O)O; Phe(3,4-Cl2) = N[C@@H](Cc1ccc(Cl)c(Cl)c1)C(=O)O; Pyridine(2,6-diCH2) = c1cc(C[*:1])nc(C[*:2])c1; Trp(6-F) = N[C@@H](Cc1c[nH]c2cc(F)ccc12)C(=O)O; 2Lut″ = 2,6-lutidylidene linking two thiols; APAc = 4-amino-1-carboxymethylpiperidine; Oic = O=C(O)[C@@H]1C[C@@H]2CCCC[C@@H]2N1; Phe(3-Cl) = N[C@@H](Cc1cccc(Cl)c1)C(=O)O; MeO10kDaPEGAc = polydisperse 10 kDa PEG; Pro(4S-NH2) = N[C@@H]1CN[C@H](C(=O)O)C1; Phe(2-Cl) = N[C@@H](Cc1ccccc1Cl)C(=O)O; mXylylene = c1cc(C[*:1])cc(C[*:2])c1; Cya = N[C@@H](CS(=O)(=O)O)C(=O)O; Hyp = O=C(O)[C@@H]1C[C@@H](O)CN1; hArg = N=C(N)NCCCC[C@H](N)C(=O)O; Cysteamide = C(CS[*:3])N[*:1]; Suc = O=C(CCC(=O)[*:2])[*:1]; hLys = NCCCCC[C@H](N)C(=O)O; Api = NC1(C(=O)O)CCNCC1; Thp = NC1(C(=O)O)CCOCC1; Dap = NC[C@H](N)C(=O)O; Aib = CC(C)(N)C(=O)O; Sar = CNCC(=O)O
What was measured:
[1] = biological target: human Gastric Inhibitory Peptide Receptor (GIPR) (human) (UniProt P48546); experiment: FACS competition vs biotinylated GIP-057 on CHO-K1-hGIPR cells; category C: pIC50 6.1-7.0
human Gastric Inhibitory Peptide Receptor (GIPR) (human), sequence (P48546 22-466 limits assumed): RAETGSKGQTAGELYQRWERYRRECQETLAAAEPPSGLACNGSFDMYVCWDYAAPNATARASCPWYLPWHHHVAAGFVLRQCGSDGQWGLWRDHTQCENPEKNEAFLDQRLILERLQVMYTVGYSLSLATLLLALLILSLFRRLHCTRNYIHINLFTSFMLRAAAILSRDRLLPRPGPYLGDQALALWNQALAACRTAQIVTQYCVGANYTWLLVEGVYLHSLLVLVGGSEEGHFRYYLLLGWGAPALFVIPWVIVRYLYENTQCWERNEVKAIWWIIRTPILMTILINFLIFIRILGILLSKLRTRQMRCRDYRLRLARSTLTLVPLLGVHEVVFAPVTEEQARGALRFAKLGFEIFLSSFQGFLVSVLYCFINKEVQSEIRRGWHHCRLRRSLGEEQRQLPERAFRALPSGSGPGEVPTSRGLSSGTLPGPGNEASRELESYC

[2] = biological target: human Gastric Inhibitory Peptide Receptor (GIPR) (human) (UniProt P48546); experiment: FACS competition vs biotinylated GIP-057 on CHO-K1-hGIPR cells; category D: pIC50 <=6.0
[3] = biological target: biotinylated extracellular domain of the human GIP receptor (bioGIPR) (human) (UniProt P48546); experiment: SPR single cycle kinetics, bioGIPR captured on chip; category B: pKD 8.1-9.0
biotinylated extracellular domain of the human GIP receptor (bioGIPR) (human), sequence (P48546 24-138 limits assumed): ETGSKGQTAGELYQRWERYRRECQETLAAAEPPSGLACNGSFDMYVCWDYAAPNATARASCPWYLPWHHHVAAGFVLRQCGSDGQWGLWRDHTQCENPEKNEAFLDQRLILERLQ

[4] = biological target: biotinylated extracellular domain of the human GIP receptor (bioGIPR) (human) (UniProt P48546); experiment: SPR single cycle kinetics, bioGIPR captured on chip; category A: t1/2 >15 min
[5] = biological target: human Gastric Inhibitory Peptide Receptor (human) (UniProt P48546); experiment: FACS competition with GIP-057 on CHO-K1-hGIPR cells; pIC50 category B: 7.1-8.0
human Gastric Inhibitory Peptide Receptor (human), sequence (P48546 22-466 limits assumed): as the sequence (P48546 22-466 limits assumed) above

[6] = biological target: human Gastric Inhibitory Peptide Receptor (GIPR) (human) (UniProt P48546); experiment: FACS competition vs biotinylated GIP-057 on CHO-K1-hGIPR cells; category A: pIC50 >8.0
[7] = biological target: human Gastric Inhibitory Peptide Receptor (human) (UniProt P48546); experiment: FACS competition with GIP-057 on CHO-K1-hGIPR cells; pIC50 category A: >8.0
[8] = biological target: human Gastric Inhibitory Peptide Receptor (GIPR) (human) (UniProt P48546); experiment: FACS competition vs biotinylated GIP-057 on CHO-K1-hGIPR cells; category B: pIC50 7.1-8.0

| pIC50 [1] [pic50] | pKD [3] [pkd] | t1/2 [4] [min] | Molecule | also measured |
| --- | --- | --- | --- | --- |
| 6.1 to 7 |  |  | H-Met-Tyr-Asp-Trp-Trp-Pro-Glu-Leu-[Cys(2MeBn)-Ala-Leu-Ile-Cys]-NH2 (peptide) |  |
|  |  |  | Ac-D[Phe(3,4-Cl2)][Phe(3,4-Cl2)][Oic]E[dL]C[Thp]LIC-NH2 (linker 7-11 via Pyridine(2,6-diCH2); SMILES CC[C@H](C)[C@@H]1NC(=O)[C@H](CC(C)C)NC(=O)C2(CCOCC2)NC(=O)[C@@H](NC(=O)[C@@H](CC(C)C)NC(=O)[C@H](CCC(=O)O)NC(=O)[C@@H]2C[C@@H]3CCCC[C@@H]3N2C(=O)[C@H](Cc2ccc(Cl)c(Cl)c2)NC(=O)[C@H](Cc2ccc(Cl)c(Cl)c2)NC(=O)[C@H](CC(=O)O)NC(C)=O)CSCc2cccc(n2)CSC[C@@H](C(N)=O)NC1=O) [Ac-Asp-Eaa-Eaa-Oic-Glu-leu-[Cys(2Lut)-Thp-Leu-Ile-Cys]-NH2] | pIC50 [2]: < 6 pic50 |
| 6.1 to 7 |  |  | Ac-DW[Trp(5-Cl)][Hyp]E[dL]C[Thp]LIC-NH2 (disulfide 7-11) [Ac-Asp-Trp-5Clw-Hyp-Glu-leu-[Cys-Thp-Leu-Ile-Cys]-NH2] |  |
| 6.1 to 7 |  |  | {DOTA-Ttds}-D[Trp(6-F)]WPE[dL]C[Aib]LI[Cysteamide] (linker 7-11 via mXylylene) [DOTA-Ttds-Asp-6Fw-Trp-Pro-Glu-leu-[Cys(3MeBn)-Aib-Leu-Ile-AET]] |  |
| 6.1 to 7 |  |  | {DOTA-APAc″}-DG[Trp(5-Cl)][Hyp]E[dL]C[Thp]LI[Cysteamide] (linker (positions not given here) via Pyridine(2,6-diCH2); not fully specified (bridges); printed as DOTA-APAc-Asp-Gly-5Clw-Hyp-Glu-leu-[Cys(2Lut)-Thp-Leu-Ile-AET]) [DOTA-APAc-Asp-Gly-5Clw-Hyp-Glu-leu-[Cys(2Lut)-Thp-Leu-Ile-AET]] |  |
|  | 8.1 to 9 | > 15 | Suc-W[Trp(5-Cl)][Hyp]E[dL]C[Api](MeO10kDaPEGAc)LIC-{APAc-Lys(DOTA)-NH2} (linker 6-10 via 2Lut) [HO-Succinyl-Trp-5Clw-Hyp-Glu-leu-[Cys(2Lut)-Apc(MeO10kDaPEGAc)-Leu-Ile-Cys]-APAc-Lys(DOTA)-NH2] | pIC50 [5]: 7.1 to 8 pic50 |
| 6.1 to 7 |  |  | Ac-D[Phe(2-Cl)][Trp(5-Cl)][Hyp]E[dL]C[Thp]LIC (linker 7-11 via Pyridine(2,6-diCH2); not fully specified (C-terminus)) [Ac-Asp-Ocf-5Clw-Hyp-Glu-leu-[Cys(2Lut)-Thp-Leu-Ile-Cys]-lys(DOTA)-NH2] |  |
| 6.1 to 7 |  |  | Ac-[Cya]G[Trp(5-Cl)][Hyp]E[dL]C[Aib]LI[Cysteamide] (linker 7-11 via 2Lut″) [Ac-Cya-Gly-5Clw-Hyp-Glu-leu-[Cys(2Lut)-Aib-Leu-Ile-AET]] |  |
|  | 8.1 to 9 | > 15 | Ac-DW[Trp(5-Cl)][Hyp]K[dL]C[Thp]LIC-NH2 (linker 7-11 via Pyridine(2,6-diCH2); SMILES CC[C@H](C)[C@@H]1NC(=O)[C@H](CC(C)C)NC(=O)C2(CCOCC2)NC(=O)[C@@H](NC(=O)[C@@H](CC(C)C)NC(=O)[C@H](CCCCN)NC(=O)[C@@H]2C[C@@H](O)CN2C(=O)[C@H](Cc2c[nH]c3ccc(Cl)cc23)NC(=O)[C@H](Cc2c[nH]c3ccccc23)NC(=O)[C@H](CC(=O)O)NC(C)=O)CSCc2cccc(n2)CSC[C@@H](C(N)=O)NC1=O) [Ac-Asp-Trp-5Clw-Hyp-Lys-leu-[Cys(2Lut)-Thp-Leu-Ile-Cys]-NH2] | pIC50 [6]: > 8 pic50 |
|  | 8.1 to 9 | > 15 | Ac-DW[Trp(5-Cl)][Hyp]H[dL]C[Thp]LIC-NH2 (linker 7-11 via Pyridine(2,6-diCH2); SMILES CC[C@H](C)[C@@H]1NC(=O)[C@H](CC(C)C)NC(=O)C2(CCOCC2)NC(=O)[C@@H](NC(=O)[C@@H](CC(C)C)NC(=O)[C@H](Cc2c[nH]cn2)NC(=O)[C@@H]2C[C@@H](O)CN2C(=O)[C@H](Cc2c[nH]c3ccc(Cl)cc23)NC(=O)[C@H](Cc2c[nH]c3ccccc23)NC(=O)[C@H](CC(=O)O)NC(C)=O)CSCc2cccc(n2)CSC[C@@H](C(N)=O)NC1=O) [Ac-Asp-Trp-5Clw-Hyp-His-leu-[Cys(2Lut)-Thp-Leu-Ile-Cys]-NH2] | pIC50 [6]: > 8 pic50 |
|  | 8.1 to 9 | > 15 | Ac-DW[Trp(5-Cl)][Hyp]R[dL]C[Thp]LIC-NH2 (linker 7-11 via Pyridine(2,6-diCH2)) [Ac-Asp-Trp-5Clw-Hyp-Arg-leu-[Cys(2Lut)-Thp-Leu-Ile-Cys]-NH2] | pIC50 [6]: > 8 pic50 |
| 6.1 to 7 |  |  | Ac-D[Phe(3,4-Cl2)][Phe(3,4-Cl2)][Hyp]E[dL]C[Thp]LIC-NH2 (linker 7-11 via Pyridine(2,6-diCH2); SMILES CC[C@H](C)[C@@H]1NC(=O)[C@H](CC(C)C)NC(=O)C2(CCOCC2)NC(=O)[C@@H](NC(=O)[C@@H](CC(C)C)NC(=O)[C@H](CCC(=O)O)NC(=O)[C@@H]2C[C@@H](O)CN2C(=O)[C@H](Cc2ccc(Cl)c(Cl)c2)NC(=O)[C@H](Cc2ccc(Cl)c(Cl)c2)NC(=O)[C@H](CC(=O)O)NC(C)=O)CSCc2cccc(n2)CSC[C@@H](C(N)=O)NC1=O) [Ac-Asp-Eaa-Eaa-Hyp-Glu-leu-[Cys(2Lut)-Thp-Leu-Ile-Cys]-NH2] |  |
| 6.1 to 7 |  |  | Ac-DW[Phe(3-Cl)][Hyp]E[dL]C[Thp]LIC-NH2 (linker 7-11 via 2Lut″) [Ac-Asp-Trp-Mcf-Hyp-Glu-leu-[Cys(2Lut)-Thp-Leu-Ile-Cys]-NH2] |  |
|  | 8.1 to 9 | > 15 | Ac-DW[Trp(5-Cl)][Hyp][hLys][dL]C[Thp]LIC-NH2 (linker 7-11 via Pyridine(2,6-diCH2); SMILES CC[C@H](C)[C@@H]1NC(=O)[C@H](CC(C)C)NC(=O)C2(CCOCC2)NC(=O)[C@@H](NC(=O)[C@@H](CC(C)C)NC(=O)[C@H](CCCCCN)NC(=O)[C@@H]2C[C@@H](O)CN2C(=O)[C@H](Cc2c[nH]c3ccc(Cl)cc23)NC(=O)[C@H](Cc2c[nH]c3ccccc23)NC(=O)[C@H](CC(=O)O)NC(C)=O)CSCc2cccc(n2)CSC[C@@H](C(N)=O)NC1=O) [Ac-Asp-Trp-5Clw-Hyp-Hly-leu-[Cys(2Lut)-Thp-Leu-Ile-Cys]-NH2] | pIC50 [6]: > 8 pic50 |
| 6.1 to 7 |  |  | Ac-DW[Trp(5-Cl)][Hyp]E[dL]C[Thp]LSC-NH2 (linker 7-11 via Pyridine(2,6-diCH2); SMILES CC(=O)N[C@@H](CC(=O)O)C(=O)N[C@@H](Cc1c[nH]c2ccccc12)C(=O)N[C@@H](Cc1c[nH]c2ccc(Cl)cc12)C(=O)N1C[C@H](O)C[C@H]1C(=O)N[C@@H](CCC(=O)O)C(=O)N[C@H](CC(C)C)C(=O)N[C@H]1CSCc2cccc(n2)CSC[C@@H](C(N)=O)NC(=O)[C@H](CO)NC(=O)[C@H](CC(C)C)NC(=O)C2(CCOCC2)NC1=O) [Ac-Asp-Trp-5Clw-Hyp-Glu-leu-[Cys(2Lut)-Thp-Leu-Ser-Cys]-NH2] |  |
|  | 8.1 to 9 | > 15 | {DOTA-APAc″}-DW[Trp(5-Cl)][Hyp]E[dL][Dap][Thp]LI[Cysteamide] (linker (positions not given here) via Pyridine(2,6-diCH2); not fully specified (bridges); printed as DOTA-APAc-Asp-Trp-5Clw-Hyp-Glu-leu-[Dap(2Lut)-Thp-Leu-Ile-AET]) [DOTA-APAc-Asp-Trp-5Clw-Hyp-Glu-leu-[Dap(2Lut)-Thp-Leu-Ile-AET]] | pIC50 [7]: > 8 pic50 |
|  |  |  | Ac-D[Phe(3,4-Cl2)][Phe(3,4-Cl2)][Sar]E[dL]C[Thp]LIC-NH2 (linker 7-11 via Pyridine(2,6-diCH2); SMILES CC[C@H](C)[C@@H]1NC(=O)[C@H](CC(C)C)NC(=O)C2(CCOCC2)NC(=O)[C@@H](NC(=O)[C@@H](CC(C)C)NC(=O)[C@H](CCC(=O)O)NC(=O)CN(C)C(=O)[C@H](Cc2ccc(Cl)c(Cl)c2)NC(=O)[C@H](Cc2ccc(Cl)c(Cl)c2)NC(=O)[C@H](CC(=O)O)NC(C)=O)CSCc2cccc(n2)CSC[C@@H](C(N)=O)NC1=O) [Ac-Asp-Eaa-Eaa-Nmg-Glu-leu-[Cys(2Lut)-Thp-Leu-Ile-Cys]-NH2] | pIC50 [2]: < 6 pic50 |
|  | 8.1 to 9 | > 15 | {DOTA-Ttds}-DW[Trp(5-Cl)][Pro(4S-NH2)](Ac)E[dL]C[Aib]LI[Cysteamide] (linker 7-11 via mXylylene) [DOTA-Ttds-Asp-Trp-5Clw-4Ap(Ac)-Glu-leu-[Cys(3MeBn)-Aib-Leu-Ile-AET]] | pIC50 [7]: > 8 pic50 |
|  | 8.1 to 9 | > 15 | Ac-DW[Trp(5-Cl)][Hyp][hArg][dL]C[Thp]LIC-NH2 (linker 7-11 via Pyridine(2,6-diCH2); SMILES CC[C@H](C)[C@@H]1NC(=O)[C@H](CC(C)C)NC(=O)C2(CCOCC2)NC(=O)[C@@H](NC(=O)[C@@H](CC(C)C)NC(=O)[C@H](CCCCNC(=N)N)NC(=O)[C@@H]2C[C@@H](O)CN2C(=O)[C@H](Cc2c[nH]c3ccc(Cl)cc23)NC(=O)[C@H](Cc2c[nH]c3ccccc23)NC(=O)[C@H](CC(=O)O)NC(C)=O)CSCc2cccc(n2)CSC[C@@H](C(N)=O)NC1=O) [Ac-Asp-Trp-5Clw-Hyp-Har-leu-[Cys(2Lut)-Thp-Leu-Ile-Cys]-NH2] | pIC50 [8]: 7.1 to 8 pic50 |

Reference: US20250296971A1, “GASTRIC INHIBITORY PEPTIDE RECEPTOR LIGANDS” (priority 2021, published 2025)
